Results published in PMC7496859.

Assays:
[1] = SEC; preparative SEC on Superdex 200 10/300 GL after Strep-Tactin affinity chromatography; running buffer 20 mM Tris/HCl pH 8.0, 150 mM NaCl; changes of pH, salt and buffering agent, addition of calcium or EDTA had no influence on the monomer/dimer ratio
[2] = target: SmuA(V465E), sucrose isomerase from Serratia plymuthica, produced in the cytoplasm of E. coli (Serratia plymuthica); assay: as above
[3] = target: SmuA(V465E), sucrose isomerase from Serratia plymuthica, produced in the periplasm of E. coli (Serratia plymuthica); assay: as above

In the case of “SmuA(V465E), sucrose isomerase from Serratia plymuthica, produced in the cytoplasm of E. coli”, the “ratio of dimer to monomer (SEC peaks)” value [1] is reported as “a ratio of 3 : 1”.
“SmuA(V465E), sucrose isomerase from Serratia plymuthica, produced in the cytoplasm of E. coli (enzyme)” gave a stoichiometry N [2] of 2.
In the case of “SmuA(V465E), sucrose isomerase from Serratia plymuthica, produced in the periplasm of E. coli”, the “ratio between monomer and dimer (SEC peaks)” value [1] is reported as “the ratio between monomer and dimer to 10 : 1”.
“SmuA(V465E), sucrose isomerase from Serratia plymuthica, produced in the periplasm of E. coli (enzyme)” showed a stoichiometry N [3] of 2.
